Laboratory results: PMC11482875

Target: miniTRIM37 RBhcc (human | T. thermophilus) (UniProt O94972)
Assay: SEC-MALS

“miniTRIM37 RBhcc (from UniProt O94972 1-158; O94972 214-254)” was tested, and the stoichiometry N was 2.
